Test results published in patent US20030054411A1, “GPR motifs and uses thereof” (priority 2001, published 2003).

Columns and labels:
[1] = system: pheromone response pathway; test: β-galactosidase reporter assays in yeast strains expressing different Gα subunits; type: cell-based, Saccharomyces cerevisiae; conditions: Gpa1, Gsα, Giα2, Giα3, Gα16 backgrounds
Description: (A) Bioactivity of cDNA #37 and 53 in yeast strains expressing different Gα subunits. The Gpa1, Giα2Gpa1(1-41), Giα3Gpa1(1-41) and Gα16Gpa1(1-41) yeast strains expressed similar amounts of G-protein as determined by immunoblotting with Gpa1-specific antisera. Each series of experiments include data obtained in the absence of Gα to indicate the signal obtained when the action of Gβγ is not limited by reformation of heterotrimer. Data are presented as the mean±S.E.M of three experiments with duplicate determinations. (B) Interaction of AGS2 and AGS3 with G-proteins. AGS2 and the bioactive AGS3 peptide (74 amino acids) beginning at the first in frame methionine were generated as GST-fusion proteins in bacteria and purified using a glutathione affinity matrix. AGS2 and AGS3 GST fusion proteins were incubated with G-protein subunits (Gα=60-80 nM, Gβγ=40 nM, fusion protein=˜300 nM, total volume=250 ul) for 12 hrs at 4° C. GDP=10 uM. […] Giα2 was generated in Sf9 cells as an amino terminal his6-tagged protein and was detected on membrane transfers using anti-Xpress antisera (Invitrogen). Bovine brain Gβγ was detected on membrane transfers with Gβ antisera. […]
Generation and screening of cDNA libraries. […] The cDNAs conferring such a response were considered positive and were further evaluated by epistasis experiments in different yeast strains, nucleotide sequencing and RNA blot analysis. […]

Giα2 = molecular target: T1, Giα2 (Homo sapiens, UniProt P04899); test: GST fusion protein interaction with purified Giα2; type: binding; conditions: for interaction with Giα2: GST fusion protein ~300 nM, Gα 60-80 nM
T1 construct: made in house; host or cells: Sf9 insect cells
T1 sequence (P04899 whole entry, the tested form may be a part): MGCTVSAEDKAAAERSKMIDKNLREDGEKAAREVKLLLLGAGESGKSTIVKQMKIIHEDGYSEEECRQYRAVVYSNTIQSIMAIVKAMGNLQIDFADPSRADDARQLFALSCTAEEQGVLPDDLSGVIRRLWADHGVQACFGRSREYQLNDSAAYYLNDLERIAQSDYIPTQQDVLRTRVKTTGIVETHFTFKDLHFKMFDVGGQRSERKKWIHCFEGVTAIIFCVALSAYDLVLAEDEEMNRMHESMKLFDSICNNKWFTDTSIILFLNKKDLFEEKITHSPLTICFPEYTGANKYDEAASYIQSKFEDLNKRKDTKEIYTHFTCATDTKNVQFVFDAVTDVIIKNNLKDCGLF
Description: (A) Bioactivity of cDNA #37 and 53 in yeast strains expressing different Gα subunits. The Gpa1, Giα2Gpa1(1-41), Giα3Gpa1(1-41) and Gα16Gpa1(1-41) yeast strains expressed similar amounts of G-protein as determined by immunoblotting with Gpa1-specific antisera. Each series of experiments include data obtained in the absence of Gα to indicate the signal obtained when the action of Gβγ is not limited by reformation of heterotrimer. Data are presented as the mean±S.E.M of three experiments with duplicate determinations. (B) Interaction of AGS2 and AGS3 with G-proteins. AGS2 and the bioactive AGS3 peptide (74 amino acids) beginning at the first in frame methionine were generated as GST-fusion proteins in bacteria and purified using a glutathione affinity matrix. AGS2 and AGS3 GST fusion proteins were incubated with G-protein subunits (Gα=60-80 nM, Gβγ=40 nM, fusion protein=˜300 nM, total volume=250 ul) for 12 hrs at 4° C. GDP=10 uM. GTPγS=10 uM plus 5 mM MgCl2. Proteins were then adsorbed to glutathione matrix and retained G-protein subunits identified by immunoblotting following gel electrophoresis. Giα2 was generated in Sf9 cells as an amino terminal his6-tagged protein and was detected on membrane transfers using anti-Xpress antisera (Invitrogen). Bovine brain Gβγ was detected on membrane transfers with Gβ antisera. Input refers to 20 ul of the incubation mixture. The results presented are representative of four separate experiments. […] C) Effect of G204A Giα2 substitution and RGS4 on the functionality of AGS proteins. The G204A Giα2 yeast strain and the system used for over expression of RGS4 are described in detail in reference 5. Protein expression was confirmed by immunoblotting. AGS 1 was discovered in a similar screen using a human liver cDNA library (5, 7). WT—wild type strain CY1316/1183 containing Giα2 as described for the original yeast screen. RGS4 was overexpressed in the CY1316/1183 yeast strain. […]
Immunoblotting and G-protein interaction assays. […] Bound proteins were detected by immunoblotting membrane transfers with specific antisera. […]

| Molecule | activity in yeast strains expressing different Gα subunits [1] | interaction with Giα2 (Giα2) | preferred nucleotide-bound conformation of Gα (Giα2; GDP 10 uM versus GTPγS 10 uM) |
| --- | --- | --- | --- |
| AGS2: Activator of G-protein Signalling 2, protein identical to mouse Tctex1, isolated from NG108-15 cDNA library | active in each of the genetic backgrounds except Gpa1 | did not interact |  |
| AGS3: Activator of G-protein Signalling 3; bioactive 74 amino acid fragment isolated in yeast screen, tested as GST fusion (protein, left off: a dimerising Fc or GST) MLIKYQSSRIDDQRCPPPDVLPRGPTMPDEDFFSLIQRVQAKRMDEQRVDLAGSPDQEASGLPDPRQQCPPGAS | only active in the Giα2 and Giα3 genetic backgrounds | specifically bound | preferred the GDP bound conformation |
